Measured values as given in the nanobody polyreactivity screen of Harvey et al. (2022).

experiment: yeast display, Sf9 membrane polyspecificity reagent, FACS + sequencing; frameworks hold sequencing errors
In short: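 Genes from sorted yeast were amplified by colony PCR, read by MiSeq 2 × 250 sequencing and filtered on CDR length. These cells carried a synthetic nanobody library in Saccharomyces cerevisiae BJ5465 and were sorted by FACS into low and high (top ~1%) gates on anti-HA and streptavidin fluorescence. Polyreactivity is labelled according to the gate of origin.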

Question: With “QVQLVESGGGLVQAGGSLRLSCAASGSTFYGYAMGWYRQAPGKERELVAAIRRIGGTTYADSVKGRFTISRDNAKNTVYLQMNSLKPVDTAVYYCAAYGFSYRYRYYYWGQGTQVTVSS” as the sequence, how does the “polyreactivity (PSR sort gate)” value read?
Answer: high polyreactivity

Question: With “QVQLVESGGGLVQAGGSLRLSCAASGSTFYGYAMGWYRQAPGKERELVAAISSSGTRTYYADSVKGRFTISRDNAKNTVYLQMNSLKPEDTAVYYCNAYYYIPFEGRGYSKMDYWGQGTQVTVSS” as the sequence, how does the “polyreactivity (PSR sort gate)” value read?
Answer: high polyreactivity

Question: For “QVQLVESGGGLVQAGGSLRLSCAASGSTFYGYAMGWYRQAPGKERELVAAISWRGGRTNYADSVKGRFTISRDNAKNTVYLQMNSLKPEDTAFYYCAARSYGITDYGMYSWGQGTQVTVSS”, which “polyreactivity (PSR sort gate)” value is on record?
Answer: high polyreactivity

Question: Which “polyreactivity (PSR sort gate)” value does the source give for “QVQLVESGGGLVQAGGSLRLSCAASGSTFYGYAMGWYRQAPGKERELVAAITRSGGSTYYADSVKGRFTISRDNAKNTVYLQMNSLKPEDTEVYYCNKYGYKGGVGYDYWGQGTQVTVSS” here?
Answer: high polyreactivity

Question: Which “polyreactivity (PSR sort gate)” value does the source give for “QVQLVESGGGLVQAGGSLRLSCAASGSTFYGYAMGWYRQAPGKERELVAAITRSGGSTYYADSVKGRFTISRDNAKYTVYLQMNSLKPEDTEVYYCNKYGYKGGVGYDYWGQGTQVTVSS” here?
Answer: high polyreactivity

Question: With “QVQLVESGGGLVQAGGSLRLSCAASGSTFYGYAMGWYRQAPGKERELVAAITSTVITDYADSVKGRFTISRDNAKNTVYLQMNSLKPEDTAVYYCNKDRATRVTAEFRGDDDYWGQGTQVTVSS” as the sequence, how does the “polyreactivity (PSR sort gate)” value read?
Answer: low polyreactivity

Question: Which “polyreactivity (PSR sort gate)” value does the source give for “QVQLVESGGGLVQAGGSLRLSCAASGSTFYGYAMGWYRQAPGKERELVAAITYSGGSTYYADSVKGRFTISRDNAKNTVYLQMNSLKPEDTAVYYCAATWLWFRRYRYDYWGQGTQVTVSS” here?
Answer: high polyreactivity

Question: For “QVQLVESGGGLVQAGGSLRLSCAASGSTFYHNAMGWYRPAPGKERELVAAISRADVSTYYADSVKGRFTISRDNAKNTVYLQMNSLKPEDTAVYFGAAYWYGSQYKWRYDYWGQGTQVTVSS”, which “polyreactivity (PSR sort gate)” value is on record?
Answer: low polyreactivity

Question: With “QVQLVESGGGLVQAGGSLRLSCAASGSTFYHNVMGWYRQAPGKERELVASIDTGDSTNYADSVKGRFTISRDNAKNTVYLQMNSLITEHTAVYYCNADSYPALNKRGYEYWGQGTQVTVSS” as the sequence, how does the “polyreactivity (PSR sort gate)” value read?
Answer: low polyreactivity

Question: With “QVQLVESGGGLVQAGGSLRLSCAASGSTFYHNVRGWYRPAPGKERELVASIDTGDSTNYADSVKGRFTISRDNAKNTVYFQMNSLTPEDTAVYYCNADSYAALNKRGYDYWGQGTQVTVSS” as the sequence, how does the “polyreactivity (PSR sort gate)” value read?
Answer: low polyreactivity

Question: For “QVQLVESGGGLVQAGGSLRLSCAASGSTFYINAMGWYRQAPGKERELVADITVRGGNTYYADSVKGRFTISRDNAKNTVYLQMNSLKPEDTAVYYCAADDWGFWYDYWGQGTQVTVSS”, which “polyreactivity (PSR sort gate)” value is on record?
Answer: high polyreactivity

Question: Which “polyreactivity (PSR sort gate)” value does the source give for “QVQLVESGGGLVQAGGSLRLSCAASGSTFYINVMGWYIQAPGKERELVAAIRRRGGSTYYADSVKGRFTISRDNEKNTVYLQMNSLKPEDTAVYYCNAFSITFYDFNSWGQGTQVTVSS” here?
Answer: low polyreactivity

Question: With “QVQLVESGGGLVQAGGSLRLSCAASGSTFYIYAMGWYRQAPGKEREFFAAITWSGGRTFYADSVKGRFTISRDNAKNTVYFQMNSLKPEDTAVYYCAARFWSDKTGSRYYYWGQGTQVTVSS” as the sequence, how does the “polyreactivity (PSR sort gate)” value read?
Answer: high polyreactivity

Question: With “QVQLVESGGGLVQAGGSLRLSCAASGSTFYIYAMGWYRQAPGKERELVAAITWRGGGTYYADSVKGRFTISRDNAKNTVYLEMNSLKPEDTAVYYCNADYPRSRGVKYDYWGQGTQVTVSS” as the sequence, how does the “polyreactivity (PSR sort gate)” value read?
Answer: high polyreactivity

Question: Which “polyreactivity (PSR sort gate)” value does the source give for “QVQLVESGGGLVQAGGSLRLSCAASGSTFYIYAMGWYRQAPGKERELVARISGSGGSTYYADSVKGRFTISRDNAKNTVELQMNSLKPEDTAVYYCAADDIYKYYQYYAFPYYRYDYWGQGTQVTVSS” here?
Answer: low polyreactivity

Question: For “QVQLVESGGGLVQAGGSLRLSCAASGSTFYIYAMGWYRQAPGKERELVARISGSGGSTYYADSVKGRFTISRDNAKNTVYLQMNSLKPEDTAVYYCAADYIYKYYQYYAFPYYRYDYWGQGTQVTVSS”, which “polyreactivity (PSR sort gate)” value is on record?
Answer: low polyreactivity

Question: With “QVQLVESGGGLVQAGGSLRLSCAASGSTFYIYAMGWYRQAPGKERELVARISGSTDYADSVKGRFTISRDNAKNTVYLQMNSLKPEDTAVYYCAARYVYPYWYGDYYWGQGTQVTVSS” as the sequence, how does the “polyreactivity (PSR sort gate)” value read?
Answer: low polyreactivity

Question: With “QVQLVESGGGLVQAGGSLRLSCAASGSTFYKYAMGWYRPAPGKESELVAAISRGGSTYYADSVKGRFTISRDNAKNTFYLQMNSLKPEDTAVYYCAAETVSYYSKYDYWGQGTQVTVSS” as the sequence, how does the “polyreactivity (PSR sort gate)” value read?
Answer: low polyreactivity

Question: For “QVQLVESGGGLVQAGGSLRLSCAASGSTFYKYAMGWYRQAPGKERELVAAITGSGGGTYYADSVKGRFTISRDNGKNTVYLQMNCLKPEDTAVYYCAARRVRSREAYDYWGQGTQVTVSS”, which “polyreactivity (PSR sort gate)” value is on record?
Answer: high polyreactivity

Question: Which “polyreactivity (PSR sort gate)” value does the source give for “QVQLVESGGGLVQAGGSLRLSCAASGSTFYKYAMGWYRQAPGKERELVARISRGGGSTYYADSVKGRFTISRDNAKNTVYLQMNSLKPEDTAVYYCAAGVRGQNDGYYWGQGTEVTVSS” here?
Answer: high polyreactivity

Question: Which “polyreactivity (PSR sort gate)” value does the source give for “QVQLVESGGGLVQAGGSLRLSCAASGSTFYLNAMGWYRQAPGKERELVAAIDYRGGSTYYADSVKGRFTISRDNAKNTVYLQMNSLKPEDTAVYYCNADYVYVHYQPGYYWGQGTQVTVSS” here?
Answer: low polyreactivity

Question: For “QVQLVESGGGLVQAGGSLRLSCAASGSTFYLNAMGWYRQAPGKERELVAAITVSGGSTYYADSVKGRFTISRDNAKNTVYLQMNSLKPEDTAVYYCARELLSPTYQRWYYYWGQGTQVTVSS”, which “polyreactivity (PSR sort gate)” value is on record?
Answer: low polyreactivity

Question: For “QVQLVESGGGLVQAGGSLRLSCAASGSTFYLYAMGWYRQAPGKEREFVAAISWSGGRTYYAYSVKGRFTISRDNAKNTVYLQMNSLKPEDTAVYYCAARRRYTWQYTRYDMGYWGQGTQVTVSS”, which “polyreactivity (PSR sort gate)” value is on record?
Answer: low polyreactivity

Question: With “QVQLVESGGGLVQAGGSLRLSCAASGSTFYLYAMGWYRQAPGKEREFVARISASGGNTYYADSVKGRFTISRDNAKNTVYLQMNSLKPEDTAVYSCAARVRGRNASDYDYYYWGQGTQVTVSS” as the sequence, how does the “polyreactivity (PSR sort gate)” value read?
Answer: high polyreactivity

Question: With “QVQLVESGGGLVQAGGSLRLSCAASGSTFYLYAMGWYRQAPGKERELVAAISSGGRTYYADSVKGRFTISRDNAKNTVYLQMNRLKPEDTAVYYCAKVYRRRYYWGQGTQVNVSS” as the sequence, how does the “polyreactivity (PSR sort gate)” value read?
Answer: high polyreactivity

Question: For “QVQLVESGGGLVQAGGSLRLSCAASGSTFYLYAMGWYRQAPGKERELVAAITFRGSRTYYADSVKGRFTISRDNAKNTVYLQMNRLKPEDTAVYYCAKEKYRTREHDSWGQGTQVTVSS”, which “polyreactivity (PSR sort gate)” value is on record?
Answer: low polyreactivity

Question: Which “polyreactivity (PSR sort gate)” value does the source give for “QVQLVESGGGLVQAGGSLRLSCAASGSTFYLYAMGWYRQAPGKERELVAAITYGGGSTYYADSVKGRFTISRDNAKNTVYLQMNSLKPEDTAVYYCAARWLYWPRYTSLVYTHRDSWGQGTQVTVSA” here?
Answer: low polyreactivity

Question: Which “polyreactivity (PSR sort gate)” value does the source give for “QVQLVESGGGLVQAGGSLRLSCAASGSTFYLYAMGWYRQAPGKERELVASITYSGASTYYADSVKGRFTISRDNAKNTVYLQMNSLKPEDTAVYYCAADQRGWFAVGSQRKYNYWGQGTQVTVSS” here?
Answer: low polyreactivity

Question: With “QVQLVESGGGLVQAGGSLRLSCAASGSTFYLYTMGWYRQAPGKERELVAAISRSGGSTRYADSVKGRFTISRDNAKNTVYLQMNSLKPEDTAVYYCAARSTVYPRPHERDYWGQGTQVTVSS” as the sequence, how does the “polyreactivity (PSR sort gate)” value read?
Answer: high polyreactivity

Question: Which “polyreactivity (PSR sort gate)” value does the source give for “QVQLVESGGGLVQAGGSLRLSCAASGSTFYNYAMGWYRQAPGKERELVASISSSGGSTYADSVKGRFTISRDNAKNTVYLQMNSLKPEDTAVYYCARVRWIVPWYGPTDDYWGQGTQVTVSS” here?
Answer: low polyreactivity

Question: Which “polyreactivity (PSR sort gate)” value does the source give for “QVQLVESGGGLVQAGGSLRLSCAASGSTFYPNAMGGYRQAPGKERELVATITQRGGTTYYADSVKGRFTISRDNAKNTVYLQMNSLKPEDTAVYYCNAGPVRLPYDSWGQGTQVTVSS” here?
Answer: low polyreactivity

Question: With “QVQLVESGGGLVQAGGSLRLSCAASGSTFYPNAMGWYRQAPGKERELVAAISRGTRTKYADSVKGRFTISRDNAKNTVYLQMNSLKPEDTAVYYCAADTGTGLDWGQGTQVNVSS” as the sequence, how does the “polyreactivity (PSR sort gate)” value read?
Answer: high polyreactivity

Question: For “QVQLVESGGGLVQAGGSLRLSCAASGSTFYPNAMGWYRQAPGKERELVAAISWSGGRTYYADSVKGRFTISRDNAKNTVYLQMNSLKPEDTAVYYCNRYHRTSWRAKYDYWGQGTQVTVSS”, which “polyreactivity (PSR sort gate)” value is on record?
Answer: high polyreactivity

Question: Which “polyreactivity (PSR sort gate)” value does the source give for “QVQLVESGGGLVQAGGSLRLSCAASGSTFYPNAMGWYRQAPGKERELVAAITSGGSTYYADSVKGRFTSSRDNAKNTVYLQMTSLKPEDTAVYYCAAQRRYHQDTTIGPGNYSYWGQGTQVTVSS” here?
Answer: low polyreactivity

Question: With “QVQLVESGGGLVQAGGSLRLSCAASGSTFYPNAMGWYRQAPGKERELVAVITRSGGSTYYADSVKGRFTISRDNAKNTVYLQMNSLKPEDTAVYYCNAAYRTAYYGPRYDYWGQGTQVTVSS” as the sequence, how does the “polyreactivity (PSR sort gate)” value read?
Answer: high polyreactivity

Question: For “QVQLVESGGGLVQAGGSLRLSCAASGSTFYPTAMGWYRQAPGKERELVAAIRVRGGSTYYADSVKGRYTISRDNAKNTVYLKRNCLKPEDTAVYYCNADTFSSFGWGQGTQVTVSS”, which “polyreactivity (PSR sort gate)” value is on record?
Answer: low polyreactivity

Question: Which “polyreactivity (PSR sort gate)” value does the source give for “QVQLVESGGGLVQAGGSLRLSCAASGSTFYPYAMGWYRPAHGKERELVAAITSRVGRTYYADSVKGRFTISRDNAKNTVYLQMNSLKPEDTAVYYCAAKIFIRVHYYSYRMYYWGQGTQVTVSS” here?
Answer: low polyreactivity

Question: For “QVQLVESGGGLVQAGGSLRLSCAASGSTFYPYAMGWYRPAPGKERELVASITLRGSSTYYADSVKGRFTISRDNAKNTVYLQMNSLKPEDTAVYYCAKEGYLYLWRYDYWGQGTQVTVSS”, which “polyreactivity (PSR sort gate)” value is on record?
Answer: high polyreactivity

Question: For “QVQLVESGGGLVQAGGSLRLSCAASGSTFYPYAMGWYRQAPGKEREFVAGISRSGGTTYYADSVKGRFTISRDNAKNTVYLQMNSLKPEDTAVYYCAVQIPYVYWSYDYWGQGTQVTVSS”, which “polyreactivity (PSR sort gate)” value is on record?
Answer: low polyreactivity

Question: With “QVQLVESGGGLVQAGGSLRLSCAASGSTFYPYAMGWYRQAPGKEREFVARISVSAGRTYYADSVKGRFTISRDNAKNTVYLQMNSLKPEDTAVYYCAKGIPTFYGSPRYDYWGQGTQVTVSS” as the sequence, how does the “polyreactivity (PSR sort gate)” value read?
Answer: low polyreactivity

Question: With “QVQLVESGGGLVQAGGSLRLSCAASGSTFYPYAMGWYRQAPGKERELVAAIDRGGSTSYADSVKGRFTISRDNAKNTVYLQMNSLKPEDTAVYYCAVARGGRRKYEYWGQGTQVTVSS” as the sequence, how does the “polyreactivity (PSR sort gate)” value read?
Answer: low polyreactivity

Question: For “QVQLVESGGGLVQAGGSLRLSCAASGSTFYPYAMGWYRQAPGKERELVAAISSGGSTSYADSVKGRFTISRDNAKNTVYLQMNSLKPEDTAVYYCAVDVAGGEGMDYWGQGTQVTVSS”, which “polyreactivity (PSR sort gate)” value is on record?
Answer: low polyreactivity

Question: With “QVQLVESGGGLVQAGGSLRLSCAASGSTFYPYAMGWYRQAPGKERELVAAISSGGSTYYADSVKGRFTISRDNAKNTVYLQMNSLKPEDTAVYYCAADFYYAYYWGQGTEVTVSS” as the sequence, how does the “polyreactivity (PSR sort gate)” value read?
Answer: low polyreactivity
